The text below walks through data of patent US20230357411A1 (published 2023).

Assay [1] concerns the target T1, Mouse-TrKA on the surface of HEK293T-MouseTrKA cells (mouse, UniProt Q3UFB7 34-799).
T1 construct: whole, on cells
Description: flow cytometry on HEK293T-MouseTrkA cells. As to the method:
(§1) Lentiviral technology was used to construct HEK293T-MouseTrkA cell model. […] Flow cytometry was used to detect the binding of each concentration gradient humanized antibody to the […] on the surface of HEK293T-MouseTrKA cells, and the binding ability of each humanized antibody to Mouse-TrKA was evaluated at the cellular level. In the FIG. 3, the EC50 (half binding concentration) value reflected the binding ability of the antibody to Mouse-TrKA; the smaller the EC50 value, the stronger the binding ability of the antibody to Mouse-TrKA, and the higher the affinity of the antibody. It was generally believed that the EC50 value of high-affinity antibodies was lower than 1.5 μg/mL.

In assay [2] the target is T2, Human-TrKA receptor on the surface of HEK293T-HumanTrKA cells (human, UniProt P04629 33-796).
T2 construct: whole, on cells
Description: flow cytometry competition: inhibition of biotinylated Human-NGF binding to HEK293T-HumanTrkA cells. From the text: Human-NGF was biotinylated, and Human-NGF could bind to the extracellular region of Human-TrkA protein on HEK293T-HumanTrkA cells, and anti-TrkA monoclonal antibodies could also bind to the extracellular region of Human-TrkA protein on HEK293T-HumanTrkA cells. […] In the FIG. 4, the parent% value reflected the Human-NGF signal that bound to the extracellular region of the Human-TrKA protein on HEK293T-HumanTrkA cells.
In general terms: In flow cytometry, cells or beads pass a laser one at a time.

In assay [3] the target is T1, Mouse-TrKA on the surface of …. Description: flow cytometry competition: inhibition of biotinylated Mouse-NGF binding to HEK293T-MouseTrkA cells. From the text:
Mouse-NGF was biotinylated, and Mouse-NGF could bind to the extracellular region of Mouse-TrkA protein on HEK293T-MouseTrkA cells, and anti-TrkA monoclonal antibodies could also bind to the extracellular region of Mouse-TrkA protein on HEK293T-MouseTrkA cells. […] In the FIG. 5, the parent% value reflected the Mouse-NGF signal that bound to the extracellular region of the Mouse-TrKA protein on HEK293T-MouseTrkA cells.

Assay [4] addresses T2, Human-TrKA receptor on the surface of …. Description: flow cytometry on HEK293T-HumanTrkA cells. As to the method: as §1, with “HEK293T-HumanTrkA” for “HEK293T-MouseTrkA”, “HEK293T-HumanTrKA” for “HEK293T-MouseTrKA”, “Human-TrKA” for “Mouse-TrKA”, “2,” for “3,”, “Human-TrKA;” for “Mouse-TrKA;”, “Human-TrKA,” for “Mouse-TrKA,”
Assay [5] has as its target TrkA protein on the surface of NIH-3T3-TrkA cells. Description: cell-based or functional assay.
Assay [6] concerns the target CD16 receptor (Fc gamma RIIIA) on Jurkat-NFAT-Luc-CD16 cells (UniProt P08637 17-254, limits assumed). Description: cell-based or functional assay.

B1: humanized anti-TrkA monoclonal antibody H3L1-IgG4 (antibody, V domains shown)
VH: EVQLLESGGGLVQPGGSLKLSCKASGYAFTNYWLGWMKQRPGHGLEWIGDFYPRTGNTFYNENFKGQVTMSVDKSITTAYLQWNSLKASDTAMYYCARAGTGFDYWGQGTTLTVSS
VL: EIVMTQSPATLSLSVGERVTLSCKASENVGGYVSWYQQKPDQSPKLLIYGASSRHTGVPDRFTGSGSETDFTLTISSVQAEDLAAYHCGQNYIYPFTFGGGTKLEIKR
As to B1, the figures for the EC50 in assay [1] and in assay [4] were 0.111 µg/mL and 0.127 µg/mL, respectively. Moreover, the 50% inhibitory concentration (IC50) in assay [2] worked out at 0.741 µg/mL; in assay [3] it was 0.283 µg/mL.

B2: humanized anti-TrkA monoclonal antibody H3L2-IgG4 (antibody, V domains shown)
VH: EVQLLESGGGLVQPGGSLKLSCKASGYAFTNYWLGWMKQRPGHGLEWIGDFYPRTGNTFYNENFKGQVTMSVDKSITTAYLQWNSLKASDTAMYYCARAGTGFDYWGQGTTLTVSS
VL: EIVMTQSPATLSLSVGERVTLSCKASENVGGYVSWYQQKPDQSPKLLIYGASSRATGVPDRFTGSGSETDFTLTISSVQAEDLAAYHCGQNYIYPFTFGGGTKLEIKR
As for B2, the EC50 is 0.125 µg/mL in assay [1] and 0.168 µg/mL in assay [4]. Further, the IC50 in assay [2] was determined as 0.665 µg/mL; in assay [3], 0.252 µg/mL.

B3: humanized anti-TrkA monoclonal antibody H1L1-IgG1 (antibody)
VH: EVQLLESGGGLVQPGGSLKLSCKASGYAFTNYWLGWMKQRPGHGLEWIGDFYPRTGNTFYNENFKGKVTLTADKSSNTAYMQLSSLTSEDSAVYLCARAGTGFDYWGQGTTLTVSS
light: EIVMTQSPATLSLSVGERVTLSCKASENVGGYVSWYQQKPDQSPKLLIYGASSRHTGVPDRFTGSGSETDFTLTISSVQAEDLAAYHCGQNYIYPFTFGGGTKLEIKRTVAAPSVFIFPPSDEQLKSGTASVVCLLNNFYPREAKVQWKVDNALQSGNSQESVTEQDSKDSTYSLSSTLTLSKADYEKHKVYACEVTHQGLSSPVTKSFNRGEC
For the molecule B3, in assay [5], the “CDC activity, killing of NIH-3T3-TrKA cells (CCK8 cell viability), half-peak concentration IC50” value worked out at 0.222 µg/mL. Moreover, in assay [6], the “ADCC activity, luciferase reporter (Mean Value), half of the peak concentration EC50” value amounted to 0.0228 µg/mL.

B4: humanized anti-TrkA monoclonal antibody H1L1-IgG4 (antibody)
heavy: EVQLLESGGGLVQPGGSLKLSCKASGYAFTNYWLGWMKQRPGHGLEWIGDFYPRTGNTFYNENFKGKVTLTADKSSNTAYMQLSSLTSEDSAVYLCARAGTGFDYWGQGTTLTVSSASTKGPSVFPLAPCSRSTSESTAALGCLVKDYFPEPVTVSWNSGALTSGVHTFPAVLQSSGLYSLSSVVTVPSSSLGTKTYTCNVDHKPSNTKVDKRVESKYGPPCPPCPAPEAAGGPSVFLFPPKPKDTLMISRTPEVTCVVVDVSQEDPEVQFNWYVDGVEVHNAKTKPREEQFNSTYRVVSVLTVLHQDWLNGKEYKCKVSNKGLPSSIEKTISKAKGQPREPQVYTLPPSQEEMTKNQVSLTCLVKGFYPSDIAVEWESNGQPENNYKTTPPVLDSDGSFFLYSKLTVDKSRWQEGNVFSCSVMHEALHNHYTQKSLSLSLG
light: EIVMTQSPATLSLSVGERVTLSCKASENVGGYVSWYQQKPDQSPKLLIYGASSRHTGVPDRFTGSGSETDFTLTISSVQAEDLAAYHCGQNYIYPFTFGGGTKLEIKRTVAAPSVFIFPPSDEQLKSGTASVVCLLNNFYPREAKVQWKVDNALQSGNSQESVTEQDSKDSTYSLSSTLTLSKADYEKHKVYACEVTHQGLSSPVTKSFNRGEC
notes: H1 + L1, IGHG4 heavy chain isotype (mutated Fc), kappa light chain
In the case of B4, the EC50 in assay [1] is 0.134 µg/mL. For the same molecule, the “down-regulation of the level of TrkA protein tyrosine phosphorylation under NGF stimulation (AlphaLISA, p-TrkA), IC50” value in assay [5] turned out to be 0.0207 µg/mL. The IC50 in assay [3] amounted to 0.385 µg/mL.

B5: human-mouse chimeric anti-TrkA monoclonal antibody 23E12 (H0L0-IgG4) (antibody)
heavy: QVQLQQSGAELVRPGTSVKISCKASGYAFTNYWLGWMKQRPGHGLEWIGDFYPRTGNTFYNENFKGKVTLTADKSSNTAYMQLSSLTSEDSAVYLCARAGTGFDYWGQGTTLTVSSASTKGPSVFPLAPCSRSTSESTAALGCLVKDYFPEPVTVSWNSGALTSGVHTFPAVLQSSGLYSLSSVVTVPSSSLGTKTYTCNVDHKPSNTKVDKRVESKYGPPCPPCPAPEAAGGPSVFLFPPKPKDTLMISRTPEVTCVVVDVSQEDPEVQFNWYVDGVEVHNAKTKPREEQFNSTYRVVSVLTVLHQDWLNGKEYKCKVSNKGLPSSIEKTISKAKGQPREPQVYTLPPSQEEMTKNQVSLTCLVKGFYPSDIAVEWESNGQPENNYKTTPPVLDSDGSFFLYSKLTVDKSRWQEGNVFSCSVMHEALHNHYTQKSLSLSLG
light: SIVMTQSPKSMSMSVGERVTLSCKASENVGGYVSWYQQKPDQSPKLLIYGASSRHTGVPDRFTGSGSETDFTLTISSVQAEDLAAYHCGQNYIYPFTFGGGTKLEIKRTVAAPSVFIFPPSDEQLKSGTASVVCLLNNFYPREAKVQWKVDNALQSGNSQESVTEQDSKDSTYSLSSTLTLSKADYEKHKVYACEVTHQGLSSPVTKSFNRGEC
notes: Printed mostly as 'HOLO-IgG4' (letter O for zero); also called HOLO-IgG4; chimeric antibody
Turning to B5, the EC50 in assay [1] was 0.105 µg/mL; in assay [4] it was 0.0867 µg/mL. The IC50 in assay [2] was 0.881 µg/mL; in assay [3] it was 0.396 µg/mL.

What is called EC50 is the concentration needed to bring the measured effect to its halfway point. The low end stands for greater potency, the high end for weaker potency. For orientation: IC50 means the concentration needed to halve the response being measured. A high value points to weaker potency in that assay.
